Experiment [1] addresses T1, recombinant cynomolgus monkey TNFR2 (Cyno. TNFR2) (Sino Biological, 90102-C021) (cynomolgus monkey, UniProt A0A2K5VET2 132-366).
T1 sequence: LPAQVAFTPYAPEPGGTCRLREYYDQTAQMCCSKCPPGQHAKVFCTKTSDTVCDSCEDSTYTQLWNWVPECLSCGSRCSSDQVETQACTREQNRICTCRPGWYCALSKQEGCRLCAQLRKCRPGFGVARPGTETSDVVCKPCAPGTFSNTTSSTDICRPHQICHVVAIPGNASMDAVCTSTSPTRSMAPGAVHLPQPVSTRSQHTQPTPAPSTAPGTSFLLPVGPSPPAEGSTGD
In words: ELISA, coated cynomolgus TNFR2. The procedure: (§1) After TMB development, the detection was performed using microplate reader: dual wavelength 450 nm/655 nm detection, and results were calculated by OD₄₅₀-OD₆₅₅.
(§2) Using the same method as above, the TNFR2 antigens of cynomolgus monkey and mouse (Sino Biological, 90102-C021 and 50128-M08H) were coated separately. The anti-human TNFR2 mouse monoclonal antibodies to be tested were gradient diluted, then added with the anti-mouse Fab segment secondary antibody (Jackson Immuno Research, 515-035-072), and TMB development was performed. ELISA was used to detect the binding of 8 strains of mouse monoclonal antibodies to recombinant mouse TNFR2 (mTNFR2) and cynomolgus monkey TNFR2 (Cyno. TNFR2).

The target in experiment [2] is T2, human TNFR2 on the cell membrane (human, UniProt P20333 23-461).
T2 construct: whole, on cells; One molecule for all cell formats; also called TNFR2-CHO cells; CHO-TNFR2
T2 sequence (looked up): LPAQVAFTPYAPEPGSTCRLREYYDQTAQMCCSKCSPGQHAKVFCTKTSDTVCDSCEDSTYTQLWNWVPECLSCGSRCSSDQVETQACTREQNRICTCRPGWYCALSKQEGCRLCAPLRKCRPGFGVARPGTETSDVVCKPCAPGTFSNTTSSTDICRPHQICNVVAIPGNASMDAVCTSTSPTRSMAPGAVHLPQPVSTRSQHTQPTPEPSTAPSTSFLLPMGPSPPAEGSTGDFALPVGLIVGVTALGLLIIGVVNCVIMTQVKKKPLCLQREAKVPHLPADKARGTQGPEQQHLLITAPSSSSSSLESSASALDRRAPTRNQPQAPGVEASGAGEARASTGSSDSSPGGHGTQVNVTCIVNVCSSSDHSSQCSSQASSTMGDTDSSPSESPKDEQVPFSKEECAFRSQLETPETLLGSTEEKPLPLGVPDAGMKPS
Kind of experiment: flow cytometry, TNFR2-CHO cells. How it is done:
(§3) Purified anti-human TNFR2 mouse monoclonal antibodies were co-incubated with TNFR2 overexpressing CHO cell lines (obtained routinely as follows: PCDNA3.4-TNFR2 was transfected into CHO cells, and stable high expression TNFR2 cell lines were obtained through drug screening and monoclonal sorting), and then stained. The antibody binding intensity was analyzed by flow cytometry. The specific steps are as follows: TNFR2-CHO cells were counted, centrifuged, resuspended, then added to a 96-deep well plate, and the supernatant was discarded. The anti-TNFR2 antibodies to be tested were gradient diluted, added to the 96-deep well plate. […] The samples were detected using Beckman CytoFLEX.
Background: Flow cytometry measures light scatter and fluorescence of single cells or particles in a stream.

For experiment [3], the target named is T3, recombinant human TNFR2 antigen (Kangdai, batch number A100114U) (human, UniProt P20333 23-257).
T3 construct: also called hTNFR2; TNFR2-FC (Shanghai Saijin Biopharmaceutical Co., Ltd., Qiangke, catalog number A100114U); not shown: Fc part of the bought TNFR2-FC
T3 sequence (looked up): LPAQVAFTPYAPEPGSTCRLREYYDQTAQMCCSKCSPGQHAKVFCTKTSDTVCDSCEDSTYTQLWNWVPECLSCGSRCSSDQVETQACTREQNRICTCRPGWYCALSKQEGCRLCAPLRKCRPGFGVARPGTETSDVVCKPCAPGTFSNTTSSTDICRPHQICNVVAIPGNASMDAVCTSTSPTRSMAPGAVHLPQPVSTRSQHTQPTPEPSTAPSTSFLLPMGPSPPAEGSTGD
In words: ELISA, coated recombinant human TNFR2. How it is done: as §1
For orientation: An ELISA detects its analyte on a solid surface through an enzyme-linked reagent.

The target in experiment [4] is T2, human TNFR2 on the cell membrane. Kind of experiment: flow cytometry on TNFR2-CHO cells. The procedure:
as §3

Experiment [5] concerns the target T4, recombinant mouse TNFR2 (mTNFR2) (Sino Biological, 50128-M08H) (mouse, UniProt P25119 23-258).
T4 sequence (looked up): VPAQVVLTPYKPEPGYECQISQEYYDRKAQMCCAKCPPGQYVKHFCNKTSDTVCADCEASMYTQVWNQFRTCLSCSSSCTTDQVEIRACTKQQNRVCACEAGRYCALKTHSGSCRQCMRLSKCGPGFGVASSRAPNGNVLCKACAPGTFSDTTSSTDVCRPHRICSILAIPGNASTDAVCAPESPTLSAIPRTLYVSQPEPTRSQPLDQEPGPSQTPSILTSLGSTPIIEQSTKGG
Kind of experiment: ELISA, plate coated with recombinant mouse TNFR2. The procedure:
as §1, §2

Experiment [6] has as its target T3, recombinant human TNFR2 antigen …. Kind of experiment: ELISA, plate coated with recombinant human TNFR2 antigen. The procedure:
as §1

Experiment [7] addresses T1, recombinant cynomolgus monkey TNFR2 …. Kind of experiment: ELISA, plate coated with recombinant cynomolgus monkey TNFR2. How it is done:
as §1, §2

B1: anti-human TNFR2 mouse monoclonal antibody 16D2 (antibody, V domains shown)
VH: EVQLQQSEPELVKPGASVKIPCKASGYTFTDYNMDWVKQSHGKSLEWIGDINPNNGVTIYNQKFKGKATLTVDKSSSTAYMELRSLTSEDTAVYYCVILEYFDYWGQGTTLTVSS
VL: DIVMTQSTSSMSVSLGDTVSITCHASQGISSNIGWLQQKPGKSFKGLIYHGTKLEDGVPSRFSGSGSGADYSLTISSLESEDFADYYCVQYAQFPRTFGGGTKLEIK
One may read the EC50 as the concentration at which the effect is half-maximal. Turning to B1, the EC50 in experiment [1] is 0.0371 µg/mL; in experiment [2] it was 5.71 µg/mL; in experiment [3], 0.0218 µg/mL; in experiment [4], 38.3 nM; in experiment [6], 0.146 nM; in experiment [7], 0.248 nM. In addition, the binding result in experiment [5] is “no binding”.

(Values after patent publication US20240392024A1 (SHANGHAI CELGEN BIO PHARMACEUTICAL, published 2024).)
